We go through five molecules from publication PMC3625234, “The L-Cysteine Desulfurase NFS1 Is Localized in the Cytosol where it Provides the Sulfur for Molybdenum Cofactor Biosynthesis in Humans” (PLoS ONE, 2013).

In assay [1] the target is ECFP-MOCS3-RLD fusion (human). The assay is described as follows: FRET or BRET; time-gated FLIM-FRET in transiently transfected HeLa cells; ECFP donor lifetime (long component τ1 of a bi-exponential fit) with EYFP acceptor; N = 30–42 cells.
Assay [2] concerns the target MOCS3-RLD (purified) (human). The assay is described as follows: SPR; Biacore T200, CM5 chip, target immobilized by amine coupling (400–600 RU), 25°C, 30 µL/min, 20 mM phosphate, 150 mM NaCl, 0.005% Tween 20, pH 7.4; analytes 0.31–10 µM; global fit, 1:1 binding, mean of 3 measurements. For orientation: In SPR one partner is held on a chip, and binding of the other changes the refractive index at the surface.

For another assay, the target named is T1, NFS1Δ1-55/ISD11 complex (human, UniProt Q9Y697 56-457; Q9HD34 1-91).
T1 construct: L-cysteine desulfurase NFS1, human, without residues 1-55; ISD11, human; source: E. coli BL21(DE3), co-expressed (pZM2 and pZM4), purified
Described as above. The following applies: both partners purified.

In assay [3] the target is T2, NFS1Δ1-55^C381A/ISD11 complex (human, UniProt Q9Y697 56-457; Q9HD34 1-91, C381A).
T2 construct: L-cysteine desulfurase NFS1, human, without residues 1-55, with C381A; ISD11, human; without ISD11 it precipitated; source: E. coli BL21(DE3), co-expressed (pUMT13 and pZM4), purified
The assay is described as above. The following applies: both partners purified.

T1 sequence (Q9Y697 56-457, stated change not applied, chain 1 of 2): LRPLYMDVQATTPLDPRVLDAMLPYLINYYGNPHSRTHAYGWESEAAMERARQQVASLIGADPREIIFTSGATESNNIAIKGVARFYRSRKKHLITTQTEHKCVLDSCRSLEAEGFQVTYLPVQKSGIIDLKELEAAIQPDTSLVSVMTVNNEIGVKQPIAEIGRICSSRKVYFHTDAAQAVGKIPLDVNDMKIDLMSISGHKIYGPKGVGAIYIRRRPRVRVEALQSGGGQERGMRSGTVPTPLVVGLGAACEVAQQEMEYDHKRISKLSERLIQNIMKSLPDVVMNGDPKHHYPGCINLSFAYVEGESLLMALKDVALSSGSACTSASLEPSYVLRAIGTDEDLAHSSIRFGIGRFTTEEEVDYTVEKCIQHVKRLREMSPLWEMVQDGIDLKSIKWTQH
T1 sequence (Q9HD34 whole entry, stated change not applied, chain 2 of 2, the tested form may be a part): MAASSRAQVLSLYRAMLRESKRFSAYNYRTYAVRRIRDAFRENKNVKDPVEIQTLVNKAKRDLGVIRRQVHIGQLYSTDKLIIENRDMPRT
T2 sequence (Q9Y697 56-457 C381A, chain 1 of 2): as the sequence (Q9Y697 56-457, stated change not applied, chain 1 of 2) above, with C326A counted along it
T2 sequence (Q9HD34 whole entry, chain 2 of 2, the tested form may be a part): as the sequence (Q9HD34 whole entry, stated change not applied, chain 2 of 2, the tested form may be a part) above

For the molecule “EYFP-NFS1Δ1-55 fusion (from UniProt Q9Y697 56-457) (domain or fragment)”, in assay [1], the ECFP donor lifetime τ1 came to 2.9 ns and the reduction of the ECFP donor lifetime was 17%.

Regarding “NFS1Δ1-55 (purified) (from UniProt Q9Y697 56-457) (domain or fragment)”, the Kd (usually the free concentration of one partner at which half of the binding sites on the other are occupied at equilibrium, for simple one-to-one binding) in assay [2] turned out to be 0.036 µM. In assay [2], “NFS1Δ1-55/ISD11 complex (from UniProt Q9Y697 56-457; Q9HD34 1-91)” gave a dissociation constant Kd of 0.166 µM.

The molecule “NFS1Δ1-55^C381A/ISD11 complex (from UniProt Q9Y697 56-457; Q9HD34 1-91)” came in with a Kd in assay [2] of 0.241 µM.

B1: MOCS3 purified after expression in Sf9 cells (enzyme, human, UniProt O95396 1-460, looked up)
chain: MASREEVLALQAEVAQREEELNSLKQKLASALLAEQEPQPERLVPVSPLPPKAALSRDEILRYSRQLVLPELGVHGQLRLGTACVLIVGCGGLGCPLAQYLAAAGVGRLGLVDYDVVEMSNLARQVLHGEALAGQAKAFSAAASLRRLNSAVECVPYTQALTPATALDLVRRYDVVADCSDNVPTRYLVNDACVLAGRPLVSASALRFEGQITVYHYDGGPCYRCIFPQPPPAETVTNCADGGVLGVVTGVLGCLQALEVLKIAAGLGPSYSGSLLLFDALRGHFRSIRLRSRRLDCAACGERPTVTDLLDYEAFCGSSATDKCRSLQLLSPEERVSVTDYKRLLDSGAFHLLLDVRPQVEVDICRLPHALHIPLKHLERRDAESLKLLKEAIWEEKQGTQEGAAVPIYVICKLGNDSQKAVKILQSLSAAQELDPLTVRDVVGGLMAWAAKIDGTFPQY
notes: MOCS3, human; no tag is named here; also called pMMC30; source: Sf9 cells, purified
B1: the Kd with NFS1Δ1-55/ISD11 complex worked out at 0.119 µM; in assay [3], 0.218 µM.
